Where a chain is given by its changes, count along the chain named. Names and notes keep the numbering of the source. Each block holds one binder with its values, some of them ahead of it.
Target: T1, human CD39 endogenously expressed on Ramos human lymphoma cells (human, UniProt P49961 1-510)
T1 construct: also called NTPDase1; ENTPD1
T1 sequence: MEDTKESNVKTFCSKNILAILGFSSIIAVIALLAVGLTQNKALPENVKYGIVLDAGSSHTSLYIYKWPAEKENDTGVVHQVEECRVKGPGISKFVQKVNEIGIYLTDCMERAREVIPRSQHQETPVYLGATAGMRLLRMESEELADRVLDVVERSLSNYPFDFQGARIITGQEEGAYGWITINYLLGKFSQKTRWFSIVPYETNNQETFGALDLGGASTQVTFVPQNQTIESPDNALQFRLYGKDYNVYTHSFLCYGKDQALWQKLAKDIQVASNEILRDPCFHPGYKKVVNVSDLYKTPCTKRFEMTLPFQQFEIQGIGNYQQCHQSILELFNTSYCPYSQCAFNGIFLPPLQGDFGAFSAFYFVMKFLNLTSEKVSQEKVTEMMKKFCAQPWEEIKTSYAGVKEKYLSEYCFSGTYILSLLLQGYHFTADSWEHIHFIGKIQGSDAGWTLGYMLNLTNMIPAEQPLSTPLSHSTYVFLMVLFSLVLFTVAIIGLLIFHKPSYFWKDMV
Experiment: flow cytometry, antibody titration on Ramos cells endogenously expressing CD39

binding result: binds
B1: HH3/L0 (antibody, human IgG1, V domains shown)
VH: QVQLVQSGSELKKPGASVKVSCKASGYTFTHYGMNWVRQAPGQGLKWMGWINTYTGEPTYAQDFKGRFVFSLDTSVSTAYLQISSLKAEDTAVYYCARRRYEGNSVFYYFDYWGQGTTVTVSS
VL: DIQMTQSPSSLSASVGDRVTITCRASENIYSYFSWYQQKPGKAPKLLIYTAKTLAEGVPSRFSGSGSGTDFTLTISSLQPEDFATYYCQHHYVTPYTFGGGTKVEIK
notes: Human IgG1 N297Q, huCk; also called mAb38

binding result: no binding
B2: HH4/L0 (antibody, human IgG1, V domains shown)
VH: B1 VH with Y54E, Q62D, S105Y
VL: B1 VL
notes: Human IgG1 N297Q, huCk; HH4 has a glutamic acid substitution at Kabat residue 53; its row is lacking in this copy; If the inference holds, this is mAb39

From WO2018065552A1 (dated 2018)
